This series is described as follows: soluble on expression in E. coli; label from the status in PepcDB or PDB records.
For the sequence “MDKNLLEAVKFDEKGLVCAIAQDAETKRILMVAWMNAEALQKTVETGFAHYYSRSRQKQWMKGEESGHTQKVRALRLDCDGDAIVMLIAQNGGIACHTGRESCFYKVWRGSAWETADAVLKDEKEIYGSTH”, the “soluble on expression in E. coli” value is listed as “not soluble”.
Then “MSLTTKYIFVTGGVVSSLGKGITAASLGRLLKNRGMKVTIQKFDPYINVDPGTMSPYQHGEVFVTDDGAETDLDLGHYERFIDINLNKNSNVTTGKIYSSVLKKERRGDYLGGTVQVIPHVTNEIKERVFRAGRETNADVVITEIGGTVGDIESLPFLEAIRQIKSDIGVDNVMYIHCTLIPYLAAAGEMKSKPTQHSVKELRSLGIQPNVIVVRTEKPVPEEMKEKIALFCDIRKDSVIEARDADTLYEVPLDLQAQNLDEIVCDHLNLSCQEADMTEWKSLVEKVKNLSGLVKIALVGKYVALPDAYLSVAEALRHAGYAFDADINIKWVDSEDVTAENVAEQLQGVDGILVPGGFGDRGIEGKIEAIRYAREQKIPFLGICLGMQLASIEFARNVLGLEGAHSAEINPDTPHPIIDLLPEQKDVEDMGGTLRLGLYPCKLKNGTLAQSAYNDQVIYERHRHRYEFNNQYREQMEAKGFMFSGTSPDGRLVEIVELGDHPFFIASQFHPEFVSRPTRPQPLFREFIQASLRKEGHHHHHH”, with “soluble”.
In the case of “MNPLAQKLNDEIKQSSPEVLDMMSQLGKDMFYPKGILSQSAEAKRTTYNATIGMATKKEGKMYANSLNQMFNDLTPDEIFPYAPPQGVEELRDLWQKKMLKENPDLKSKSISRPIVTNALTHGLSLVADLFVDTDDTVLLPTHNWGNYKLVFSTRHGAHIDTYSIFDNSGHFTTSELVKTLKEYKKDKVIIILNYPNNPTGYTPNKEEVNTIVNAIEELANKGTKVVTVVDDAYYGLFYEEVYQQSIFTALTQVKSSNLLPVRLDGATKEFFSWGFRVGFMTFGIDHETLKNALEAKVKGLIRSNISSSPLPSQSAIKHVLKHHEQFDKEIDQNINILKERYEVTKQVVYDNKYAKYWQAYDFNSGYFMSLKLNQVDPEELREHLINNYSIGIIALNSTDIRIAFSCVEKEDIPYVFESIANAIDDIK”, the “soluble on expression in E. coli” value is “not soluble”.
Take “EVIDLASPIEAHGETLSQVTFRRPTAQEARAIKALPYKIDKNEDVSLDLDVAAKYIAVCAGIPPSSVNQMDLCDINTLSWKVASFFMAAAS”: the “soluble on expression in E. coli” value was “not soluble”.
Then “RKRYYNTIEDMKGKIRVYCRIRPLNEKESSEREKQMLTTVDEFTVEHPWKDDKRKQHIYDRVFDMRASQDDIFEDTKYLVQSAVDGYNVCIFAYGQTGSGKTFTIYGHESNPGLTPRATKELFNILKRDSKRFSFSLKAYMVELYQDTLVDLLLPKSARRLKLEIKKDSKGMVFVENVTTIPISTLEELRMILERGSERRHVSGTNMNEESSRSHLILSVVIESIDLQTQSAARGKLSFVDLAGSERVKKSGSAGNQLKEAQSINKSLSALGDVIGALSSGNQHIPYRNHKLTMLMSDSLGGNAKTLMFVNVSPAESNLDETYNSLLYASRVRTIVNDPSKHISSKEMVRLKKLVAYWKEQAGKKGEEEDLVDIEEDRTRKDEADS”, with “soluble”.
Then “MGSDKIHHHHHHMHVDIELPLGRATALQRLRAQGFCVLTPAALETLTGMPLDAFDMMLPYWEELAPDLHLKDGGHYRYRRHGCFMQTLQPGQLETVQHRAHWQPTTYNALHGGMERWFEPLSNEMIHLPSWSALLVALGELFAKLRAPQGGRWYIEAHPFRIDTEGGVGRPTPEGAHRDGVDFVAVVFIGRQGVRGGETRVFDAAGPQGVRFTLEQPWTVLLLDDQQVIHESTPLLPLDPADPAVPAHRDTLVLTYRSGGFQAPA”, with “not soluble”; and “MGSDKIHHHHHHMLKLLKPKHRSILGIDISSSAVKILEISGSGEDICVEGYGREEIPASALEGNIIKDVDVVANCIKKLVERLKFTSKNVALAVPDSAVISKVVQINEGLTDLEMEELVVIEADKYIPYPIDEINLDFEVLGHSAKSSSLLDVLIVASRAENVNTRVEAAHRAGLEPKVVDVESYAVERSVQQIAQELPASGQDKIVAIVDIGANYTHLFVLHGMRLIFSREEKFGGMQLVEAIAEHYHMNLEQAIALKNQGKLPEDYESAVLEPFKDMILLQIKRTLQFFYSTSQHGFVDHILLAGGMARQSGLAALIQEQLGVTTTVANPLSHMSFGKKVNLDVINSDAPTLMVACGLALRHVE”, with “not soluble”; and “MDGDGDPESVSHPEEASPEEQPEEAGAEASAEEEQLREAEEEEEAEAVEYLAELPEPLLLRVLAELPATELVQACRLVCLRWKELVDGAPLWLLKCQQEGLVPEGSADEERDHWQQFYFLSKRRRNLLRNPCGEEDLEGWSDVEHGGDGWKVEELPGDNGVEFTQDDSVKKYFASSFEWCRKAQVIDLQAEGYWEELLDTTQPAIVVKDWYSGRTDAGSLYELTVRLLSENEDVLAEFATGQVAVPEDGSWMEISHTFIDYGPGVRFVRFEHGGQDSVYWKGWFGARVTNSSVWVEP”, with “soluble”.
Turning to “MGSDKIHHHHHHVVKHPAWSRFGAEVRRLRVQSGYSQAQLARAIPLSQSMLSGIELGRKGAKRDHAEALDRVLNTGGRLVRLWDSLNSIPAHPSWFQNVLALERKAVEIREYQMVVLPGLLQTEDYARSLIRPAQPWANAEKVDELVHARMSRREILTAPDRPLCWFVVDQVVIDRVTGSPTVMKEQLTYLLNLIEDHTIRFQVFPQEIPLHPGLTGPIRIMSFDDRPTMAYVEHTLGGLLTDQQQEVRYCSAIFSALQSEALSSHASADYIRRRKDQL”, the “soluble on expression in E. coli” value is reported as “not soluble”.
Next, “MGSDKIHHHHHHMSLEHFFRDELTYLRLQGREFAKAHPELTRFLSEQTTDPDVERLLEGFAFLTGSLRAKIEDEFPELTHGLLGMLWPNYLRPVPSMTIMQFSVHPGAIAQPAFVARGCELDSLPIDDVVCHFQTCHDAWIYPADIREIKVQSGNDLSTITLDIGLHGPLSLSDLQLDKLRFYLGGDTYTAYELYFWIASQLSHIELEVDGQRFRQEASVLKTVGFEREDALLPYPGNVYSGYRILQEYFCFPESFLFFQLAGAVWPDLPLTVTEFRLHFCFDRPLPAELKIRPDSFMFNCVPAINLFQHDSEPINLSGRQTDYPLKASYRNADSFEIFSVDKVEGWVEGNSGRSRGIPRTYQPFESFQHQIERAKGRLALYYRIRVREAINGNGFDHMLSFVRGDEQEVIDLDESISVTLTCTNRSRAAQLSVGAICVPTGNSPSFATFRNLVRPTRPLRPAMDGSLHWTLISNLSLNYVSLLRRDALVQILRTYDFPALHDKQAEQASRKRLAGIESIETTPIDRLVQGMPVRGLKSILSVRQSAFSSEGELYLFSTVLAHFFSLYASVNAFHLLEVVNIDNKERYRWPVQIGQHSMM”: “not soluble”; “MASPHQEPKPGDLIEIFRLGYEHWALYIGDGYVIHLAPPSEYPGAGSSSVFSVLSNSAEVKRERLEDVVGGCCYRVNNSLDHEYQPRPVEVIISSAKEMVGQKMKYSIVSRNCEHFVTQLRYGKSRCKQVEKAKVEVGVATALGILVVAGCSFAIRRYQKKATALEHHHHHH”: “not soluble”.
Next, “MPWQQQPIRYSADLEKPSPREQADIEKIMAKLLKNNERAYDKYKHGLRDAHAKSHAILRGELIVNEGLPPELAQGLFAEPRTYPVIARLSSTSGVRRSDKTRGVRGLGLKVLGVQGEKILPDDSSTNQDFVMVTHEDFLFADAHAYAGLGMITASLLARLSDQALWLGSGLLDLVSKAGIKLPDNLMVFVAPNRPILGLEFFSSAPFRHGDHVAKYRFAPASENVKALSGQLLPRNPAPEQHRDMIAEFFADQTAEFDFSAQLCTDPVAMPIEDAGKNWDKSISPYVSVAKIVFGPQNPYSALRRAYGDDVLAFNSWRGLAEHRPLGSINRLKKTVYESSADYRHRVNRIDRHEPVDISELPDLEHHHHHH”: “not soluble”; “MSLSDNITIKDVRTYSVSAEGGGDYHLQEKGHWITDTYISNPMSMYPDYKKTRTSWGIGVLGSVVVEIELSNGIVGVATGLGGEPACWLIQHHFKRFLINQSPKNLNLIWDQMFKASMFYGRKGITICAISVVDLALWDSLGILRDEPVWQMIGGKVRDEIHFYCTGPLPVETRKMGFWGSKVPLPFGPGDGHEGLEKNYEYLKKHRDSVPEKFPLMVDCYMSLNVQYAIQLAKRCEDLNINWWEEVLHPDDIDGYKQIKLAHPDKKWTTGEHEYTRYGFRQLIETRSIDILQPDVMWVGGMTELLKISAMAAAYDLPVVPHGSGPYSSHFIFSQPHSPFCEYIAGSPDGKKVIKMFPYFDGEQLPENGKIKPSYDPGFGMKIANKDTLIEIKQNEGHHHHHH”: “soluble”.
Take “MGSDKIHHHHHHKDTKWVDVPTGTPPEGSVTGKPGETEEPDDPDPTDKTFINCSYIRGDFFETNRISGASMGACNDLIYLTARPYADGDLTFDLPVNDATLTGAATYAASYNGRNGVLKLDGTGKMNAGDGLLHSPDGAFKKFTFGTYIYVSEWVDGACLFKKVDGGSVVIAFQLGATEGNLKLTVGSATATVTNSALKSGAWHYVAVTYDGGAAKLYIDTNNTATDFTGSLPASVPNTRADFVMGENLKGYLDETFVNSLLMGTLGRNPISFDNWNNTKTLAYWKYDDAAKPGKDSHTWAIRLEQIRTALNGQAGDRKIRLGIAGGEWLKMVGNATARTNFANNVKKVIEQYNLDGADLDFEWAYSGTDLSNYSKAIVQLREVLGKDVFLTVSLHPVSYKISAEAIAAVDFISLQCYGPSVELFSMERFKSDGKAAVDYGIPQDKLVMGVPFYGTTGTAGEQAAYFDLVGKGNLTNTSADTWSYEGKNYTLNSQNTIRQKTQYVCENGFGGIMSWDLATDVDVTHEMSLLKAVKEELDYYANPTVE”: the “soluble on expression in E. coli” value is “not soluble”.
Next, “MGSDKIHHHHHHMKDLSSIVAKFNTQGTITEIKPLGAGLINDTYKVNTQEADAPDYVLQRINHAIFQNVEMLQSNIAAVTGHIRKKLTEAGEADIDRKVLSFLATEEGKTYWFDGESYWRVMVFIPRAKTYETVNPEYSNYAGEAFGNFQAMLADIPETLGETIPDFHNMEFRLKQLRDAVAANAAGRVAEVQYYLDEIEKRADEMCKAERLFREGKLPKRVCHCDTKVNNMMFDEDGKVLCVIDLDTVMPSFIFSDYGDFLRTGANTGDEDDKDLNRVNFNMEIFKAFTKGYLKGAKSFLTPIEIENLPYAAALFPYMQCVRFLADYINGDTYYKIKYPEHNLVRTKAQFKLLQSVEEHTPEMVAFINECLVNG”: “not soluble”; “MAISLRQLEIFEKVAQCEHVTQASTQLFLTQSAVSMAIAELERVAGAPLFERRGKRLLLNDRGRKILPEAEEVVRRTRAIEQFLEDSAGEPRGVLNVGASTTIGNYILPELIAEFSGNYPDAKVLLTIGNAHQIEHALEKGELDLGLIEGIPHSGVLDSTPWKKDELVVVVGKGHPWACDGAASVEMLGNAPWIMRETGSGTREVFEGAMAGKGISFSISLELGHTEAIKKAIEAGLGVGCLSRIAVNRELEHGWLVEIACPLDLKRTLSLQTRQSGYKTRLLCAFWSLLNRHKDI”: “not soluble”.
With “MAHHHHHHMCAPLYVSPAVQELAQLNSEAERLMLKRAWCVHTKAHLLRELPWAARDVAAYRVALREALQSFTESQQDAFLIDVVYAQFVCAEGGVLRACVQHALFLDLTYDVRLQQWTLVPLHWNIFTTSAGALLLTLQSVLAGPHAQTPCTPPAAPATAARAPLIAHSRAHGTVDSASPLPEASTPASFVRVDPHDREALHRFMRLAFEQEGLSGELHASNRLVCAVVMDTFAIQLQSLQQSFFTGGGLGRLVEMEVRPGTLISFHLSLPELFVPSAPVAHVKMTVAGGTVMLECVRGTDLSTRRVTLPLGTSSLVASGAVGVNTATWKSSMTVVDMEALLWQCVCASAPS”, the “soluble on expression in E. coli” value was “not soluble”.
Then “MGSDKIHHHHHHMTNGVLWRSSLLSDYWFSHLPAALQDSVLHAARQVRKTPGKMLFEKGAAPCGLYALLEGDVRIGGAHFQRLGPRLEPIRRPYWFGEVSLFDEMPRRFDVCSLEQTIFLQVPHSFLVSLLDRHPEYWRHFAALLSQKLGLPLQNPEKLQLLPPRSRVASRLLLLSEGYGPLSHARRLITLDEVTSLQDLSHSALLEVLEDLHERKVVRLGIGQLEVFDVDKLRKIANFSRARAVC”, with “not soluble”.

Values taken from the DeepSol protein solubility set.
